According to PMC3539133:

Molecular target: T1, dADAR dsRBD1 (UniProt Q9NII1 48-140)
T1 sequence: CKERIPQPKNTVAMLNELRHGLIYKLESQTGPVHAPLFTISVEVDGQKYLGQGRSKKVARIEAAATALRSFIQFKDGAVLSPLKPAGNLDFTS
Test: ITC

GGUAGUAUAACAAUAUCCGUGUUGUUAUAGUACC (structured_RNA) [GluR-2 R/G upper stem-loop (GluR-2 USL) with GluR-3 tetraloop]
Kd: 400 ± 50 nM
